Data reported in patent US6989144.

Molecular target: GPVI on baboon platelets (baboon)
Test: flow cytometry, washed baboon platelets; positive control

B1: convulxin (Cvx) purified from the venom of Crotalus durissus terrificus (ligand)
chain 1: GLHCPSDWYYYDQHCYRIFNEEMNWEDAEWFCTKQAKGAHLVSIKSAKEADFVAWMVTQNIEESFSHVSIGLRVQNKEKQCSTKWSDGSSVSYDNLLDLYITKCSLLKKETGFRKWFVASCIGKIPFVCKFPPQC
chain 2: GFCCPSHWSSYDRYCYKVFKQEMTWADAEKFCTQQHTGSHLVSFHSTEEVDFVVKMTHQSLKSTFFWIGANNIWNKCNWQWSDGTKPEYKEWHEEFECLISRTFDNQWLSAPCSDTYSFVCKFEA
For B1, the Baboon fluorescence intensity was 72 and the Baboon platelets % positive was 95%.
